Measurements as given in US20210132079A1, “ANTIBODY” (UCB Biopharma SRL, priority 2015, published 2021).

Columns and labels:
Mouse TNFα = target: T1, Mouse TNFα (Mus musculus, UniProt P06804); experiment: BIAcore surface plasmon resonance, captured IgG, mouse TNFα +/− test compound; format: binding
T1 construct: made in house
T1 sequence (P06804 80-235 limits assumed): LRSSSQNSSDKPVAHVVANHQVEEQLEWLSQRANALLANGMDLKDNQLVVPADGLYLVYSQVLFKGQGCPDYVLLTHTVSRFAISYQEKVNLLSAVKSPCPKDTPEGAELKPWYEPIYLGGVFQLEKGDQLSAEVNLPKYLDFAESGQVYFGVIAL
Experimental: (§1) Surface plasmon resonance was performed at 25° C. using a BIAcore T200 (GE Healthcare). Anti-Mouse Fc (Jackson 115-006-071) was immobilised on a […] Sensor Chip (GE Healthcare) via amine coupling chemistry to a capture level of 6000 response units. HBS-EP buffer (10 mM HEPES pH 7.4, 0.15 M NaCl, 3 mM EDTA, 0.05% (v/v) surfactant P20—GE Healthcare)+1% DMSO was used as the running buffer.
(§2) The surface was regenerated at a flow-rate of […] by a 60 s injection of 40 mM HCl×2 and a 30 s 5 mM NaOH. Double referenced background subtracted binding curves were analysed using the T200 Evaluation software (version 1.0) following standard procedures. Kinetic parameters were determined from the fitting algorithm.

Human TNFα [1] = target: T2, Human TNFα (Homo sapiens, UniProt P01375); experiment: FACS assay with HEK Jumpin cells overexpressing TNF-RI, receptor-bound TNFα; format: cell-based; design: host or cells: HEK Jumpin cells (carry the TNF-RI; details: antibody at 1 and 10 μg/ml; TNFα pre-incubated with compound (1) or DMSO control
Experimental: HEK cells were trypsinised and incubated for 2 h in medium to allow recovery of digested TNFRI levels.
Target sequence in this assay (P01375 77-233 limits assumed): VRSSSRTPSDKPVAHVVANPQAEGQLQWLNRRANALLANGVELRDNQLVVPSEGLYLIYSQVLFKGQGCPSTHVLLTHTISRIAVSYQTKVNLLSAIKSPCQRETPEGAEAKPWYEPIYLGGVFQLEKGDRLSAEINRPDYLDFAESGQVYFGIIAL
Target sequence in this assay (P19438 22-455 partner limits assumed): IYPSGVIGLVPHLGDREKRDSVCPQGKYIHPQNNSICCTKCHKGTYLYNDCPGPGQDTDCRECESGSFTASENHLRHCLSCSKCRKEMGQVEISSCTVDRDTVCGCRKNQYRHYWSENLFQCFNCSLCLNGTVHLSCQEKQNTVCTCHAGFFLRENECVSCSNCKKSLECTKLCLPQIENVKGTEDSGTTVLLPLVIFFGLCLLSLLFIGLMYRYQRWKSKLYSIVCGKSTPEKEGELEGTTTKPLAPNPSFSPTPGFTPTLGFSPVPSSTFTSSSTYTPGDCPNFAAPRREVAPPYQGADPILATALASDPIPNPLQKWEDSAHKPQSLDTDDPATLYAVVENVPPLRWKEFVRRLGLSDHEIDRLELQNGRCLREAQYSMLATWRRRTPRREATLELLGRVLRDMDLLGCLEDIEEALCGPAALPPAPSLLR

Human TNFα [2] = target: T2, Human TNFα; experiment: BIAcore surface plasmon resonance, captured IgG, human TNFα +/− test compound; format: binding; design: Soluble form of human TNFα; made in house
Experimental: as §1, §2
Target sequence in this assay (P01375 with tags, fused parts or gaps): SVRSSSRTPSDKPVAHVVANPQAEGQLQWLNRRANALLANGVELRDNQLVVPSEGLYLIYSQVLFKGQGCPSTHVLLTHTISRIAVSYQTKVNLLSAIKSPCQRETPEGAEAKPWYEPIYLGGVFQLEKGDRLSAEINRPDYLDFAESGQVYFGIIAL

[3] = target: human TNFα complexed with compound (1) (Homo sapiens, UniProt P01375); experiment: Size exclusion chromatography (HPLC) of mouse Fab with TNFα-compound complex; format: binding; details: Fab at 0.5×-2× molar excess
membrane TNFα = experiment: FACS assay with engineered NS0 cell line overexpressing membrane TNFα; format: cell-based; details: Fab fragments; NS0 cells incubated with compound (1) or DMSO control
Experimental: An engineered NS0 cell line, which overexpresses membrane TNFα, due to knock-out of the TACE cleavage site was incubated with 0.001-10 μM compound (1) or 0.1% DMSO for 1 h at 37° C. Cells were washed, fixed and stained with antibody Fab fragments at 0.01 or 0.1 μg/ml for 1 hour on ice. (Secondary antibody was anti-mouse Fab-DyeLight488 from Jackson ImmunoResearch).
There is no staining with the DMSO controls.

human TNFα complexed with compound (1), sequence (P01375 77-233 limits assumed, one chain of several): as the sequence (P01375 77-233 limits assumed) above
membrane TNFα, sequence (P01375 89-233 limits assumed): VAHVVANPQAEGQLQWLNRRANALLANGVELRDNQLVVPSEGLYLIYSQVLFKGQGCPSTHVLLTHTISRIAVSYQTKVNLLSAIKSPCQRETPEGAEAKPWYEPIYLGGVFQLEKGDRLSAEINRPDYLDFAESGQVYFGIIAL

B1: CA185_01979: rat-derived conformation-selective antibody to compound-bound TNFα; LCVR SEQ ID NO: 22, HCVR SEQ ID NO: 23 (antibody, V domains shown)
VH: EVHLVESGPGLVKPSQSLSLTCSVTGYSITNSYWDWIRKFPGNKMEWMGYINYSGSTGYNPSLKSRISISRDTSNNQFFLQLNSITTEDTATYYCARGTYGYNAYHFDYWGRGVMVTVSS
VL: DIQMTQSPASLSASLEEIVTITCQASQDIGNWLSWYQQKPGKSPHLLIYGTTSLADGVPSRFSGSRSGTQYSLKISGLQVADIGIYVCLQAYSTPFTFGSGTKLEIK
modifications: HCVR of 1979; DIQMTQSPASLSASLEEIVTITCQASQDIGNWLSWYQQKPGKSPHLLIYGTTSLADGVPSRFSGS RSGTQYSLKISGLQVADIGIYVCLQAYSTPFTFGSGTKLEIK
**Q.** Which Kd (Mouse TNFα; Mouse TNFα + compound (1)) does the source give for B1 here?
**A.** 0.38 nM

**Q.** And the ka (Mouse TNFα; Mouse TNFα + compound (1))?
**A.** 160000 M⁻¹ s⁻¹

**Q.** What about the kd (Mouse TNFα; Mouse TNFα + compound (1)) of the same molecule?
**A.** 6.3e-05 s⁻¹

**Q.** What about the ka (Mouse TNFα; Mouse TNFα + compound (2)) of the same molecule?
**A.** 190000 M⁻¹ s⁻¹

**Q.** What about the kd (Mouse TNFα; Mouse TNFα + compound (2)) of the same molecule?
**A.** 3.5e-05 s⁻¹

**Q.** What about the Kd (Mouse TNFα; Mouse TNFα apo) of the same molecule?
**A.** 27 nM

**Q.** And the ka (Mouse TNFα; Mouse TNFα apo)?
**A.** 72000 M⁻¹ s⁻¹

**Q.** And the kd (Mouse TNFα; Mouse TNFα apo)?
**A.** 0.002 s⁻¹

**Q.** And the “FACS staining of receptor-bound TNFα” value (Human TNFα [1])?
**A.** only recognise TNFα which has been pre-incubated with compound (1)

**Q.** What about the ka (Human TNFα [2]; Human TNFα + compound (1)) of the same molecule?
**A.** 470000 M⁻¹ s⁻¹

**Q.** What about the kd (Human TNFα [2]; Human TNFα + compound (1)) of the same molecule?
**A.** 1.6e-05 s⁻¹

**Q.** What about the ka (Human TNFα [2]; Human TNFα + compound (2)) of the same molecule?
**A.** 570000 M⁻¹ s⁻¹

**Q.** What about the kd (Human TNFα [2]; Human TNFα + compound (2)) of the same molecule?
**A.** 3.3e-05 s⁻¹

**Q.** What about the ka (Human TNFα [2]; Human TNFα apo) of the same molecule?
**A.** 110000 M⁻¹ s⁻¹

**Q.** What about the kd (Human TNFα [2]; Human TNFα apo) of the same molecule?
**A.** 0.00071 s⁻¹

**Q.** And the “stoichiometry of Fab binding to TNFα trimer” value [3]?
**A.** 1 Fab: 1 TNFα trimer

**Q.** And the “FACS staining of membrane-bound TNFα” value (membrane TNFα)?
**A.** only recognise TNF which has been pre-incubated with compound (1)
